Measured values taken from article doi:10.1101/435982 (bioRxiv, 2018).

B1: Strep-mCherry-XcpS56-396 (domain or fragment, P. aeruginosa, UniProt Q00513 56-396, looked up)
chain: RLTFARGLSARDLALVTRQLATLVQAALPIEEALRAAAAQSTSQRIQSMLLAVRAKVLEGHSLAGSLREFPTAFPELYRATVAAGEHAGHLGPVLEQLADYTEQRQQSRQKIQLALLYPVILMVASLAIVGFLLGYVVPDVVRVFIDSGQTLPLLTRVLIGVSDWVKAWGALAFVAAIGGVIGFRYALRKDAFRERWHGFLLRVPLVGRLVRSTDTARFASTLAILTRSGVPLVEALAIAAEVIANRIIRNEVVKAAQKVREGASLTRSLEATGQFPPMMLHMIASGERSGELDQMLARTARNQENDLAAQIGLMVGLFEPFMLIFMGAVVLVIVLAILLP

Assays:
[1] = molecular target: His-Halo-XcpS62-396 (not stated | P. aeruginosa) (UniProt Q00513); experiment: negative-stain electron microscopy structure
SEC-MALS = molecular target: the molecule itself; experiment: SEC-MALS

| Molecule | stoichiometry N [1] | stoichiometry N (SEC-MALS) |
| --- | --- | --- |
| His-Halo-XcpS62-396 (from UniProt Q00513 62-396) (domain or fragment) | 2 |  |
| B1 |  | 2 |
